This note sets out measurements from patent US20230287131A1 (ORIONIS BIOSCIENCES, published 2023).

In assay [1] the target is hTNF-R2 on Raji cells or PC60-hTNFR2 cells (human) (UniProt P20333). Description: cell-based or functional assay.
Assay [2] has as its target T1, soluble hTNF-R1 (Peprotech) (human, UniProt P19438 30-211).
T1 construct: extracellular domain; also called p55
T1 sequence (looked up): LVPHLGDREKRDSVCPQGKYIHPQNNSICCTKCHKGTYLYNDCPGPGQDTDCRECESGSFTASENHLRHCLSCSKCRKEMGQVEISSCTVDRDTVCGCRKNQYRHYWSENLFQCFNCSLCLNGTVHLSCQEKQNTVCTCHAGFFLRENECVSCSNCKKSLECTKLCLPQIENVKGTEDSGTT
Description: BLI (Octet RED96), affinity relative to WT hTNF. How it is done: (§1) KD values were calculated using global fitting with a 1:1 model (R²≥0.95).
On the technique in general: BLI is a label-free optical method that tracks binding on a fibre tip over time.

Assay [3] addresses T1, soluble hTNF-R1 (Peprotech). Description: BLI (Octet RED96), His-tagged TNF on HIS1K biosensor, soluble receptor in solution, 1:1 global fit. As for the experimental part: as §1
Assay [4] concerns the target T2, soluble hTNF-R2 (Peprotech) (human, UniProt P20333 23-257).
T2 construct: extracellular domain; also called p75
T2 sequence (looked up): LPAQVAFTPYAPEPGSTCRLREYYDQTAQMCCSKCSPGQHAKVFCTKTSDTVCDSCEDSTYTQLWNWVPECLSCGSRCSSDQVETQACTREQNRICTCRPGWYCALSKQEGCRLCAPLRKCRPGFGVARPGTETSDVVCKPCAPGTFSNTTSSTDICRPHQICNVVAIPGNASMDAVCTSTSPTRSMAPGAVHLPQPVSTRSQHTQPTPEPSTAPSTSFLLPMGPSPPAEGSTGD
Described as above. As for the experimental part: as §1

For “BclI10 Nanobody (control) - 20xGGS - hTNF Y87H/A145R - 6xHis AcTakine”, in assay [1], the OPRM1 mRNA expression in Raji cells (qPCR), against unstimulated cells is 5 fold.

B1: hTNF mutant A145T E146D S147D (N-terminal 6xHis tag) (ligand)
chain: HHHHHHVRSSSRTPSDKPVAHVVANPQAEGQLQWLNRRANALLANGVELRDNQLVVPSEGLYLIYSQVLFKGQGCPSTHVLLTHTISRIAVSYQTKVNLLSAIKSPCQRETPEGAEAKPWYEPIYLGGVFQLEKGDRLSAEINRPDYLDFTDDGQVYFGIIAL
For orientation: Kd means the free concentration of one partner at which half of the binding sites on the other are occupied at equilibrium, for simple one-to-one binding. A low value points to higher affinity. As for B1, in assay [2], the “% WT R1” value is 0.35%. Besides, the results for the Kd in assay [3] and in assay [4] were 5100 nM and 4.78 nM, respectively.
